In test [1] the target is T1, soluble gp68 ectodomain, V5-His tagged (sgp68-V5-His) (HCMV strain AD169, UniProt P16739 24-292).
T1 construct: V5 and His tags are in the entry; also called sol gp68; sgp68wt
As to the kind of experiment: ELISA. On the technique in general: An ELISA detects its analyte on a solid surface through an enzyme-linked reagent.

For test [2], the target named is T2, soluble human ICOSL ectodomain, V5-His tagged (sICOSL-V5His) (human, UniProt O75144 19-256).
T2 construct: extracellular domain; Control protein with the same tags as the vFcγRs
T2 sequence: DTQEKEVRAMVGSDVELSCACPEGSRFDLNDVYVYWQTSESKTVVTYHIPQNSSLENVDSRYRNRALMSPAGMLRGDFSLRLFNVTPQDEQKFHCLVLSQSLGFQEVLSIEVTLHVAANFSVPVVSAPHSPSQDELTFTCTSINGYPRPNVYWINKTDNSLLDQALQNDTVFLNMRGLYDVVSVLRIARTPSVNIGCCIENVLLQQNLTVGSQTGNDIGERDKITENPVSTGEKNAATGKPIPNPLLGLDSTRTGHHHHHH
As to the kind of experiment: western blot. Background: A western blot detects proteins with antibodies after separation by electrophoresis.

The target of another test is T3, gp68_ECD_wt (HCMV strain AD169, UniProt P16739 24-292).
T3 construct: Called 'same antigen as used for immunization'; used as HEK293T supernatant; also called gp68wt extracellular domain
Description: ELISA, coated supernatant.

The target in a further test is T4, gp68_ECD_1 (1-201 aa) (HCMV strain AD169, UniProt P16739 24-201).
T4 construct: signal peptide 1-23 left out
As to the kind of experiment: ELISA, coated supernatant.

The target of another test is T5, gp68_ECD_4a* (1-144aa) (HCMV strain AD169, UniProt P16739 24-144).
T5 construct: Shortened by a stop codon that arose in cloning, so a C-terminal tag is doubtful
T5 sequence: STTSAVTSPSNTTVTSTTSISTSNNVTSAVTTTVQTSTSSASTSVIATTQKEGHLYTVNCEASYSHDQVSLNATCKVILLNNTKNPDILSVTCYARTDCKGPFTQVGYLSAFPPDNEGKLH
Description: ELISA, coated supernatant.

A further test deals with gp68_ECD_4b (1-152) (HCMV strain AD169, UniProt P16739 24-152). Description: ELISA, coated supernatant.
For test [3], the target named is T6, gp68_ECD_7 (gp68 ΔO-glyc, 1-293 lacking 27-67aa) (HCMV strain AD169, UniProt P16739 65-292).
T6 sequence: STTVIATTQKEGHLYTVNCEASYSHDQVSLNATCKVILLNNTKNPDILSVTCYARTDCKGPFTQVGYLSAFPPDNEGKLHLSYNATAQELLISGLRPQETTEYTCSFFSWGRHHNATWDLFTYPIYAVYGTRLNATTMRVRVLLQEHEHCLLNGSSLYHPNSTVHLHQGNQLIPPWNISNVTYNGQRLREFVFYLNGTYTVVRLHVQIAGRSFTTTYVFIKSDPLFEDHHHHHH
Description: ELISA, coated supernatant.

The target in test [4] is T7, native vFcγR gp34 of HCMV AD169 (infected cells, virions) (HCMV strain AD169, UniProt P16809 24-234).
T7 construct: also called native HCMV gp34 protein; gp34/RL11
T7 sequence (looked up): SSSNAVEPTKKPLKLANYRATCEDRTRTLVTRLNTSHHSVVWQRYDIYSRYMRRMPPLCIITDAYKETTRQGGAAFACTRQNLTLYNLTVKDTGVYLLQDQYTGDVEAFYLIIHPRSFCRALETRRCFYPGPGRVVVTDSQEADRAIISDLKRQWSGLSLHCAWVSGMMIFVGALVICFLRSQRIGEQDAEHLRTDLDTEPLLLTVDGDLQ
Description: IP from infected cells; Fc-mediated background per the filing.
Description: Finally, anti-vFcγR gp68 mAbs were used for immunoprecipitation experiments. MRC5 fibroblasts were infected with HCMV AD169wt strain or a virus mutant lacking vFcγR gp68 (Δgp68) for 4 days with MOI 3. Infected cells were metabolically labeled with ³⁵S for 2 hours at 37° C., washed and lysed using NP40-lysis buffer. Lysates were incubated with indicated mAbs or human IgG Fc-fragment to pulldown vFcγR gp68 specifically or both HCMV-encoded vFcγRs gp34, gp68 using human IgG-Fc-fragment to precipitated Fc-binding proteins. Samples were deglycosylated by EndoH and separated on SDS-page gradient gel.
MRC5 fibroblast were infected with MOI 2. Four days post infection cells were metabolically labelled and following lysates were incubated with indicated anti-gp68 mAbs or human IgG-Fc-fragment for precipitation of vFcγR gp68.

Test [5] concerns the target T8, soluble gp34 ectodomain W65F, V5-His tagged (sgp34mtrp-V5-His) (HCMV strain AD169).
T8 construct: signal peptide 1-23 left out; V5 and His tags are in the entry; Forms only monomers and dimers; also called sol gp34mtrp; gp34 1-179 W65F
T8 chain: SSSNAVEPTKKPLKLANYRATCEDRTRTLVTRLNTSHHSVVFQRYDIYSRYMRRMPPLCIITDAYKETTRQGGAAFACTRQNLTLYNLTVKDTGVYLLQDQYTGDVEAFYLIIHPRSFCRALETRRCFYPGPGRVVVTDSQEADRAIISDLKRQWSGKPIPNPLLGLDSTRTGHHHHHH
Description: ELISA mtrp.

The target of test [6] is T9, gp34wt on stably transduced HeLa cells (HCMV strain AD169, UniProt P16809 24-234).
T9 construct: whole, on cells; also called plasma membrane exposed gp34wt
T9 sequence: T7 sequence (looked up)
Description: flow cytometry, HeLa, 1 µg/ml. (In flow cytometry, cells or beads pass a laser one at a time.)

Test [7] concerns the target T10, gp34mtrp (W65F) on stably transduced HeLa cells (HCMV strain AD169, UniProt P16809 24-234).
T10 construct: whole, on cells; also called plasma membrane exposed gp34mtrp
T10 sequence: T7 sequence (looked up) with W42F
As to the kind of experiment: flow cytometry, HeLa, 1 µg/ml.

In test [8] the target is T11, soluble gp34 wild type ectodomain, V5-His tagged (sgp34wt-V5-His) (HCMV strain AD169).
T11 construct: Entry holds signal peptide 1-23 (left out), ectodomain, V5 tag and His tag; Forms monomers, dimers and higher oligomers; also called sol gp34 wt; gp34 1-179
T11 chain: T8 chain with F42W
As to the kind of experiment: sgp34wt pre-incubated with mAb, ELISA on CRP.
Description: In addition, binding of sgp34wt to immobilized CRP in absence of any mAb is depicted.

Test [9] addresses T11, soluble gp34 wild type ectodomain, …. As to the kind of experiment: sgp34wt pre-incubated with mAb, ELISA on FcRn.
Description: Furthermore, the gp34wt and FcRn interaction was investigated whereby various anti-gp34 mAbs were analyzed and their potential to block this interaction was identified. Experiments were performed as described before for IgG-blocking ELISA, but this time using immobilized FcRn as a novel gp34-ligand.
In addition, binding of sgp34wt to immobilized FcRn in absence of any mAb is depicted.
Test [10] has the same target. Description: blocking of sgp34wt binding to immobilized human IgG, ELISA.
Description: FIG. 44: IgG blocking ability by anti-gp34mtrp mAbs. vFcγR gp34 is an HCMV encoded IgG-Fc-binding. Anti-gp34mtrp-specific mAbs (in titration) were pre-incubated with recombinant, sgp34wt (constant amount 1 μg/ml) and added to IgG-immobilized ELISA plates. […] Dose-dependent potential of mAbs used for blocking is indicated. Effect by non-specific mouse IgG isotype IgG1 is shown. In addition, binding of sgp34wt to immobilized IgG in absence of any mAb is depicted.
To test if anti-gp34wt specific mAbs can interfere with IgG-binding ability of gp34 and human IgG. Therefore, recombinant, sgp34wt was pre-incubated with indicated anti-gp34wt specific mAbs, mouse IgG isotype or PBS only. Next, antibody bound sgp34wt was incubated on IgG-immobilized ELISA plates.
Anti-gp34wt-specific mAbs (in titration) were pre-incubated with recombinant, sgp34wt (constant amount 1 μg/ml) and added to IgG-immobilized ELISA plates. […] Dose-dependent potential of mAbs used for blocking is indicated. […] In addition, binding of sgp34wt to immobilized IgG in absence of any mAb is depicted.
The target in test [11] is T12, gp68 on stably transduced HeLa cells (HCMV strain AD169, UniProt P16739 24-345).
T12 construct: whole, on cells; also called plasma membrane exposed gp68
T12 sequence: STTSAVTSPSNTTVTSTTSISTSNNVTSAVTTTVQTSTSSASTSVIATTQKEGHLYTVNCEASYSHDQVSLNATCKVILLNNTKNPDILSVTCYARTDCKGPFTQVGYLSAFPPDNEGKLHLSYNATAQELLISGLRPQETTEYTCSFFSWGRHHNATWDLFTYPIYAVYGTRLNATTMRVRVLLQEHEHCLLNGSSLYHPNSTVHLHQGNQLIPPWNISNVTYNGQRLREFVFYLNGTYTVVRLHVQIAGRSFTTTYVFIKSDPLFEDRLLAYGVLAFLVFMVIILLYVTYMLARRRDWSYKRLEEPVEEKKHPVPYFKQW
As to the kind of experiment: flow cytometry, HeLa, 1 µg/ml.

Residue numbers refer to the chain shown, from its start.

B1: gp68.05 (antibody, V domains shown)
VH: QVKLEESGAELMKPGASVKISCTATGYTFSGYWIEWVKQRPGHGLEWIGEILPGSGGTNYNEKFKGKATFTADTSSNTAYMQLSSLTSEDSAVYYCARGIHYFGYYYFDYWGQGTTLTVSSAKTTPPSVY
VL: DIVLTQTPSSLSASLGDRVTISCRASQDISNYLNWYQLKPDGTVKLLIYYTSRLHSGVPSRFSGSGSGTDYSLTISNLEQEDIATYFCQQGNTLPPTFGGGTKLEIKRADAAPTVS
notes: mouse IgG1 hybridoma mAb; leader in entries; also called anti gp68 clone 68.05
As to B1, the binding result in [1] is “binds”; in test [2], “no binding”; with gp68_ECD_wt, “binds”; in the test with gp68_ECD_1 (1-201 aa), “no binding (tested: 1 µg/ml)”; with gp68_ECD_4a* (1-144aa), “no binding (tested: 1 µg/ml)”; with gp68_ECD_4b (1-152) it was “no binding (tested: 1 µg/ml)”. The binding result in test [3] and in [4] was “binds” throughout.

B2: gp68.06 (antibody, V domains shown)
VH: B1 VH with E6Q
VL: B1 VL with T7S, S76N
notes: mouse IgG1 hybridoma mAb; leader in entries; also called anti gp68 clone 68.06
Turning to B2, the binding result is “binds” in test [1]; “no binding” in [2]; “binds” in the test with gp68_ECD_wt; “no binding (tested: 1 µg/ml)” with gp68_ECD_1 (1-201 aa); “no binding (tested: 1 µg/ml)” in the test with gp68_ECD_4a* (1-144aa); “no binding (tested: 1 µg/ml)” with gp68_ECD_4b (1-152). Moreover, the binding result in test [3] and in test [4] was “binds” in each case.

B3: gp34mtrp.01 (antibody, V domains shown)
VH: QVKLEESGAELVKPGASVKLSCTGSGFNIKDIYMDWVKQRPEQGLEWIGRIDPANGNSKYDPKFQGKATITVDTSSNTAYLQLSSLTSEDTAVYYCASYYGSSYNYWGQGTTLTVSS
VL: DIVITQTPPSVPVTPGESVSISCRSSKSLLHSNGNTYLYWFLQRPGQSPQLLIYRMSNLASGVPDRFSGSGSGTAFTLRISRVEAEDVGVYYCMQHLEYPLTFGAGTKLELKRADAAPTVS
notes: mouse IgG1 hybridoma mAb; leader in entries; also called anti gp34 clone mtrp.01
By IC50 is commonly meant the concentration that gives 50% inhibition. B3: the binding result in test [5], in [6] and in test [7] was “binds” throughout. Also, the “percent blocking of gp34-CRP-binding” value in test [8] was about 50%. Further, in test [9], the “percent blocking of gp34 FcRn-binding” value was at most 50%. The same molecule registered an IC50 in [10] of 0.239 µg/mL.

B4: gp34mtrp.02 (antibody, V domains shown)
VH: B3 VH with E6Q
VL: B3 VL
notes: mouse IgG1 hybridoma mAb; leader in entries; also called anti gp34 clone mtrp.02
Regarding B4, the binding result in test [5], in test [6] and in [7] was “binds” throughout. The “percent blocking of gp34-CRP-binding” value in test [8] is about 50%. In [9], the “percent blocking of gp34 FcRn-binding” value is at most 50%. Also, the IC50 in test [10] is 0.33 µg/mL.

B5: gp68.01 (antibody, V domains shown)
VH: EVKLLESGPELVKPGSSVKISCKASGYSFADHIILWVKQSHGKSLEWIGNINPYSGNTIYNLNFKGKATLTVDKSSSTAYMQLNSLTSEDSAVYYCARIEGYYSMDYWGQGTSVTVSS
VL: DIVMTQTPLSLPVSLGDQASISCRSSQSIVHSNGNTYLEWYLQKPGQSPKVLIYKVSKRFSGVPDRFSGSGSGTDFTLKISRVEAEDMGVYYCFQGSHVPLTFGAGTKLELK
notes: mouse IgG1 hybridoma mAb; leader in entries
As to B5, the binding result in test [1] was “binds”; in test [2] it was “no binding”; with gp68_ECD_wt, “binds”; with gp68_ECD_1 (1-201 aa), “binds”; in [3], “binds”; in test [11] it was “binds”.

B6: gp68.02 (antibody, V domains shown)
VH: B5 VH with E6Q
VL: B5 VL with M4L
notes: as for B5
Turning to B6, the binding result in [1] is reported as “binds”; in test [2], “no binding”; with gp68_ECD_wt it was “binds”; in the test with gp68_ECD_1 (1-201 aa), “binds”; in [3] it was “binds”; in test [11], “binds”.

B7: gp68.03 (antibody, V domains shown)
VH: EVKLEESGPEVKKPGETVKISCKASGYTFTNYGMSWLRQAPGKGLKWMGWINTYTGEPTYADDFKGRFAFSLETSASTAYFQINNLKDEDTTTYFCARRAFGGLDYWGQGTSVTVFS
VL: DIVLTQTPLSLPVSLGDQASISCRSSQSIVHSNGNTYLEWYLQKPGQSPKVLIYKVSKRFSGVPDRFSGSGSETDFTLKISRVEAEDMGVYYCFQGSHVPLTFGAGTKLELKR
notes: mouse IgG1 hybridoma mAb; leader in entries; VH entry see recheck; also called anti gp68 clone 68.03
Take B7: the binding result in test [2] was “no binding”; with gp68_ECD_1 (1-201 aa), “no binding (tested: 1 µg/ml)”; in the test with gp68_ECD_4a* (1-144aa) it was “no binding (tested: 1 µg/ml)”; in the test with gp68_ECD_4b (1-152) it was “no binding (tested: 1 µg/ml)”.

Values taken from patent US20250270295A1 (ALBERT LUDWIGS UNIVERSITAET FREIBURG, published 2025).
